Results published in the nanobody polyreactivity screen of Harvey et al. (2022).

Experiment: yeast display, Sf9 membrane polyspecificity reagent, FACS + sequencing; frameworks hold sequencing errors
In short: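 Nanobodies came from a synthetic yeast display library in Saccharomyces cerevisiae BJ5465, induced with galactose for 36–48 hours and stained for 1 hour at 4 °C with 10% biotinylated, detergent-solubilized Sf9 membrane reagent. Cells were enriched on streptavidin microbeads and then FACS-sorted, with low and high (top ~1%) gates set on anti-HA fluorescence for expression and streptavidin fluorescence for reagent binding. Each polyreactivity label reflects the gate a clone came from. Genes were amplified by colony PCR, sequenced by MiSeq 2 × 250 and filtered by CDR length.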

Sequence | polyreactivity (PSR sort gate)
QVQLVESGGGLVQAGGSLRLSCAASGRTFASYAMGWNRQPPGKERELFARISKSGGSTYYADSVKGRFTISRDNAKNTVYLQMNSLKPEDTAVYYCAAEYPFEIGYVYYSIDYDYWRQGTQVTVSS | low polyreactivity
QVQLVESGVGLDQAGGSLRLSCAASGSTFFVNAMGWYRQAPGKEMELVAAISTSGGRTYYADSVKGRFRISRDNAKNNLYLQMKSLKPEDTAVYYGAAVSLSGGYGEYDYWGQGTKVTVSS | high polyreactivity
QVQLVESGGGLVQAGGSLRLSCAASGSTFSQNAMGWYRQAPGKERELVAVISSSGGRTNYADSVKGRFTISRDNAKNTVYLQMNSLKPEDSAVYYCAKRLRVLYYYWGQGTQVTVSS | high polyreactivity
QVQLEESGRGLVQAGGSLRLSCAASGSISGYYAMGWYRQAPGKERELVAVITSSGTSTYYADSVKGRFTISRDNAKNTVYLQMNSLKPEDTAVYDCWGQGTQVTVSS | low polyreactivity
QVQLVESGGGLVQAGGSLRLSCAASGRTLYYNPMGWYRQAPGKEREFVAAISYSGGGTYYADSVKGRFTISRDNAKNTVYLQMNSLKPEDTAVYYCNARIRRPYRVTAEYDYWGQGTQVTVSS | high polyreactivity
QVQLVESGGGLVQAGGSLRLSCGASGFSFTRTAMGWYRQAPGKERELVAAISRGGSTNYADSVKGRFTISRDNAKITVYFQMNSLNPEDPSLYFCAKVRTRATPGVDYYYWGQGSQVTVSS | high polyreactivity
QVQLVESGGGLVQAGGSLRLSCAASGRIFYYYAMGWYRQAPGKERELVAAISWRGVSTYYADSVKGRFTISRDNAKNTVYLQMNSLKPEDTAVYYCAASQYRSPYPYRDYYTPDYDYWGQGTQVTVSS | high polyreactivity
QVHLVESGGGLVQAGGSLRLSCAASGSIFKPYAMGWYRKAPGKERELVAAISGIGGSTYYADSVKGRFTISRDNAKNTVYLQMNSLKPEDTAVYYCAADTFFKIFSEYNYCGQGTQVTVSS | high polyreactivity
QVQLVESGGGLVQAGGSLRLSCAASGSIFEPNAMVWYRQAPGKERELVAVISIDGITYYADSVKGRFTISRDNAKNSVYLQMNSLKPEDTAVYYCAAYLGQGESYGAYDYWGQGTQVTVSS | low polyreactivity
QVQLVESGGGLVQAGGSLRLSCAASGFIFRNYAMGWNTQAPGKERELVAAISRSVGRTYYADSVKGRFTISRDNAKNTVYLQMNSLKPEDPAVYYCAVHIYGIGFYFTYLYVNGYDYWGQGTQVTVSS | high polyreactivity
QVQLVESGGGLVQAGGSLRLSCAASGITFRDYAMGWYRQAPGKERELVAAISRSVGSTYYADSVKGRFTISRDNAKNTVYLQMNSLKPEDTAVYYCAALSQREFDYWGQGTQVTVSS | high polyreactivity
QVQILESGGGLVQAGVSLRLSCAPSGSTFSRNAMAWYRQAPGKERELVAAISSSGGRTYYAESVKVRFTISRDNAKNTVYLQMNSLTPEDTAVYYCAAAFSLGMYWGQGTLVTVSS | high polyreactivity
QVQLVESGGGLVQAGGSLRLSCAASGSTFAGYAMGWYRQAPGKERELVAAISWNGGSTYYADSVKGRFTISRDNAKNTVYLQMNSLKPEDTAVYYCAKARYYSWKGKGDYWGQGTQVTVSS | high polyreactivity
QDQLVESGGGLVQAGGSLRLSCAASGSTFSDNTMGWYRQAPGKERELVAANTTIGGSTYYADSVKGRFTISRDNAKNTVSVQMISLKPEDTAVYYCAAVDFTSQYYDLYIYWGQGTQVTVSS | low polyreactivity
QVQLVESGGGLVQAGGSLRLSCAASGFTFIYAMGWYRQAPGTERELVAAITRSGGSTYYADSVKGRFTISRDNAKNTVYLQMNSLKPEDTAVYYCAAEAVIYYSSYFEYYYWGQGTQVTVSS | high polyreactivity
QVQLVESGGGLVQAGGSLRLSCAAYGNIFDGNAMGWYRQAPGKERELVAAITGRGGGTYYADSVKGRFTISRDNAKNTVYLLMNSLKPEDTAVYYCNKYYYRGGMDYWGQGTQVNVSS | high polyreactivity

Sequence | polyreactivity (PSR sort gate)
QVQLVETGGGLVQAGGSLRLSCAASGRTFWYYAMGWYRQAPVTERELVAYADSVKGRFTISRDNAKNTVYLQMNSLKPEDTAVYYCAVGPVVWFSSSLYYTDYYYWGQGTEVTVSS | low polyreactivity
QVQLVESGGGLVQAGGSLRLSCAASGRTFGTNAMVWYRQAPGKERELVAAITWRGGSTSYADSVKGRFTISRDNAKNTVYLQMNSLKPEDSAVYYCAVRLRYPGNTFYYWGQGTQVTVSS | high polyreactivity
QVQLVESGGGLVQAGGSLRLTCAASGNIFDLYAMGWYRQAPGTERELVASITSDGITYYADSVKGRFTISRDNAKNTVYLQMNSLKPEDSAVYYCAVVRSYRYLPRGDYWGQGTQVTVSS | low polyreactivity
QVQIVESGGGLVQAGGSLRLSCAASGSIFSRNVMGWYRQAPGKERELVAAISRSGGRTYYADSVKGRFTISRDYAKNTVYLQMNSLKPEDTAVYYCNRDIGGTSVLDDYWGQGTQVTVSS | low polyreactivity
QVPLVESGGGLVQAGGSLRLSCAASGGIFRLYAMGWYRLAPGKEREVVASLSGDGDSTYYADSVQGRFTISRDNAKNTVYLQMNSLKPEDTAVYYCARQPYYFLSRPPYFRKYYYWGQGTQVTVSS | high polyreactivity
QVQLVESGGGLVQAGGSLRLICAASGYTFYFYAMGWYIQAPGKERELVAAITGGGTTSYADSVKGRFTISRDKAKNTVYLQMNSLKPEDTAVYYCASSVRNNIERYRDYYWGQGTQVTVSS | low polyreactivity
QVQLVESGGGIVQAGGSLRLSCAASGSIFSENTMGWYRQAPGKKRELVADITSGGSTNYADSVKGRFTISRDNAKNTVYLQMNSLKPEDTAVYYCNADWEAYKYNYWGQGTQVTVSS | low polyreactivity
QVQLVESGGGLVQAGGSLRLSCAASGSIFERYAMGWYRPAPGKERELVAGISSDGSTYADSVKGRFTISRDNAKNTVFLQMNSLKPEDTAVYYCAAAAWDPKGSRYDYWGQGTQVTVSS | low polyreactivity
QVQLVESGGRLVQAGGSLRLSCAASGRTFGYYAMGWYRQAPGQERELVAAITESGGSTYYSDSVKGRFTISRDNAMNTVYLQMNSLKPEDTAVYYFASTHFVKGDYWGQGTQVTVSS | high polyreactivity
QVQLVESGGGLVQAGGSLRLSCAASGSTFSPYAMGWYRQAPGKERELVAGITSSGGDTYYADSVKGRFTISRDNAKNTVYLQMNSLKPEDTAVYYCAAGLQGYPRKFNYWGQGTQVTVSS | low polyreactivity
QVQLVESGGGLVQAGGSLRLSCADSGITFSDYAMGWYRQAPGKERELVAAISARGGSTYYADSVKGRFTISRDNAKNTVYLQMNSLKPEDTAVYYCAADKRTPYYSRAGMDYWGQGTQVTVSS | low polyreactivity
QVQLVESGGGLVQAGGSLRLSCAASGSTFTNYAMGWYRQAPGKEREFVAAITFRGGRTYYADSVKGRFTISRDNAKNTVYLQMNSLKPEDTAVYYCNKRTSPKRFDYWGQGTQVTVSS | high polyreactivity
QVQLVESGGGLVQAGGSLRLSCAASGLTFRNYAMGLYRQAPGKERELDAAISRSGGSTYYADSVKGRFTISRDYAKNTVYLHMNSLKPEDTAVYYCATRTYRESTYDYWGQGTQVTVSS | high polyreactivity
QVQLVESGGGLVQAGGSLRLSCAASGSIFDYYAMGWYRQAPGKERELVASISWIGDRTYYADSVKGRFTISRDNAKNTVYLQMNSLKPEDTAVYYCATDYYEDWRGYEVYWYRPYDYWGQGTQVSVSS | high polyreactivity
QVQLVESGGGLVQAGGSLRLSCAASGRIFIYNAMGWYCQAPGKERELVAAINRSGVSTHYADSVKGRFTISRDNAKNTVYLQMNSLKPEDTAVYYCARTDYGARSYDYWGQGTQVTVSS | low polyreactivity
QVQLVESGGGLVQAGGSLRLSCAASGLIFGYNAMGWYRQAPGKERELVAAISRRGTSTYYADSVKGRFTISRDNAKNTVYLQMNSLKPEDTAVYYCATYGVNPPGVEEYNYWGQGTQVTVSS | high polyreactivity
